How the values were obtained:
Test in all cases: cell-based or functional assay
[1] = target: gp120 of HIV-1 clade B primary isolate P15, on virus (HIV-1 P15)
[2] = target: gp120 of HIV-1 clade B primary isolate Bal, on virus (HIV-1 Bal)
[3] = target: gp120 of HIV-1 clade C primary isolate DU422 (R5), on virus (HIV-1 DU422)
[4] = target: gp120 of HIV-1 clade B primary isolate PVO, on virus (HIV-1 PVO)
[5] = target: gp120 of HIV-1 clade B primary isolate JR-FL, on virus (HIV-1 JR-FL)
[6] = target: gp120 of HIV-1 clade C primary isolate DU368 (R5), on virus (HIV-1 DU368)
[7] = target: gp120 of HIV-1 clade C primary isolate DU151 (R5), on virus (HIV-1 DU151)
[8] = target: gp120 of HIV-1 clade B primary isolate GV, on virus (HIV-1 GV)
[9] = target: gp120 of HIV-1 IIIB (laboratory strain, on virus) (HIV-1 IIIB)
[10] = target: gp120 of HIV-1 MN (laboratory strain, on virus) (HIV-1 MN)
[11] = target: gp120 of HIV-1 clade C primary isolate DU179 (R5/X4), on virus (HIV-1 DU179)

product of clone 611-2, CD4(V1 + V2)-hIgG1 (from UniProt P01730 26-203) (Fc fusion)
% reduction in p24 in PMBC at 890 nM [1]: 94%
% reduction in p24 in PMBC at 890 nM [2]: 100%
ID90 (nM), 90% reduction of p24 production in PMBC [2]: 5.3 nM
% reduction in p24 in PMBC at 890 nM [3]: 9%
% reduction in p24 in PMBC at 890 nM [4]: 96%
% reduction in p24 in PMBC at 890 nM [5]: 100%
ID90 (nM), 90% reduction of p24 production in PMBC [5]: 8.2 nM
% reduction in p24 in PMBC at 890 nM [6]: 53%
% reduction in p24 in PMBC at 890 nM [7]: 63%
% reduction in p24 in PMBC at 890 nM [8]: 88%
ID50 (nM), protection of MT-2 cells from virus-induced cell killing [9]: 0.79 nM
ID50 (nM), protection of MT-2 cells from virus-induced cell killing [10]: < 0.41 nM
% reduction in p24 in PMBC at 890 nM [11]: 78%
